Measured values: patent US20190338048A1
Where two headings read alike, the source gives them in different places.

Assays:
[1] = target: CAT-2200 lambda light chain, wild type (L1), N-terminal FLAG tag; test: LCCA, SPR of light chain tags
[2] = target: CAT-2200 heavy chain Fab construct (H1) L143E_K145T_Q179E; test: LCCA, SPR tag read-out
[3] = target: CAT-2200 heavy chain Fab construct (H1) L143E_K145T; test: LCCA, SPR tag read-out
[4] = target: CAT-2200 heavy chain Fab construct (H1) Q179K; test: LCCA, SPR tag read-out
[5] = target: CAT-2200 heavy chain Fab construct (H1) D146G_Q179K; test: LCCA, SPR tag read-out
[6] = target: CAT-2200 heavy chain Fab construct (H1) Q179K; test: LCCA, SPR tag read-out; remark: listed apart in the source
[7] = target: CAT-2200 heavy chain Fab construct (H1) S186R; test: LCCA, SPR tag read-out
[8] = target: CAT-2200 heavy chain Fab construct (H1) S186R; test: LCCA, SPR tag read-out; remark: listed apart in the source
[9] = target: CAT-2200 heavy chain Fab construct (H1) L124E; test: LCCA, SPR tag read-out
[10] = target: Pertuzumab kappa light chain S121K_S131K; test: LCCA
[11] = target: Pertuzumab kappa light chain S121K_T129K_S131K; test: LCCA
[12] = target: Pertuzumab kappa light chain S131K_L135A; test: LCCA
[13] = target: Pertuzumab kappa light chain S176K_T178K (L2), HA-tagged; test: LCCA, SPR of light-chain tags
[14] = target: Pertuzumab kappa light chain S176K_T178L (L2), HA-tagged; test: LCCA, SPR of light-chain tags
[15] = target: Pertuzumab kappa light chain S176K_T178R (L2), HA-tagged; test: LCCA, SPR of light-chain tags
[16] = target: Pertuzumab kappa light chain S176K_T178K (L2), HA-tagged; test: LCCA, SPR of light-chain tags; remark: listed apart in the source
[17] = target: Pertuzumab kappa light chain S176K_T178L (L2), HA-tagged; test: LCCA, SPR of light-chain tags; remark: listed apart in the source
[18] = target: Pertuzumab kappa light chain S176K_T178R (L2), HA-tagged; test: LCCA, SPR of light-chain tags; remark: listed apart in the source
[19] = target: Pertuzumab kappa light chain S176K_T178K (L2), HA-tagged; test: LCCA, SPR of light-chain tags; remark: listed apart in the source
[20] = target: Pertuzumab kappa light chain S176K_T178L (L2), HA-tagged; test: LCCA, SPR of light-chain tags; remark: listed apart in the source
[21] = target: Pertuzumab kappa light chain S176K_T178R (L2), HA-tagged; test: LCCA, SPR of light-chain tags; remark: listed apart in the source
[22] = target: Pertuzumab kappa light chain S176K_T178K (L2), HA-tagged; test: LCCA, SPR of light-chain tags; remark: listed apart in the source
[23] = target: Pertuzumab kappa light chain S176K_T178L (L2), HA-tagged; test: LCCA, SPR of light-chain tags; remark: listed apart in the source
[24] = target: Pertuzumab kappa light chain S176K_T178R (L2), HA-tagged; test: LCCA, SPR of light-chain tags; remark: listed apart in the source
[25] = target: Pertuzumab kappa light chain S176K_T178K (L2), HA-tagged; test: LCCA, SPR of light-chain tags; remark: listed apart in the source
[26] = target: Pertuzumab kappa light chain S176K_T178R (L2), HA-tagged; test: LCCA, SPR of light-chain tags; remark: listed apart in the source
[27] = target: Pertuzumab kappa light chain V133A_S176K (L2), HA-tagged; test: LCCA, SPR of light-chain tags
[28] = target: Pertuzumab kappa light chain V133G_S176R (L2), HA-tagged; test: LCCA, SPR of light-chain tags
[29] = target: Pertuzumab kappa light chain V133A_S176K (L2), HA-tagged; test: LCCA, SPR of light-chain tags; remark: listed apart in the source
[30] = target: Pertuzumab kappa light chain V133G_S176R (L2), HA-tagged; test: LCCA, SPR of light-chain tags; remark: listed apart in the source
[31] = target: CAT-2200 lambda light chain S176E_Y178E (L1), FLAG-tagged; test: LCCA, SPR of light-chain tags
[32] = target: CAT-2200 lambda light chain V133L_S176D_Y178E (L1), FLAG-tagged; test: LCCA, SPR of light-chain tags
[33] = target: Pertuzumab kappa light chain V133A_S176K_T178A (L2), HA-tagged; test: LCCA, SPR of light-chain tags
[34] = target: Pertuzumab kappa light chain V133G_S176R_T178A (L2), HA-tagged; test: LCCA, SPR of light-chain tags
[35] = target: Pertuzumab kappa light chain V133A_S176K_T178A (L2), HA-tagged; test: LCCA, SPR of light-chain tags; remark: listed apart in the source
[36] = target: Pertuzumab kappa light chain V133G_S176R_T178A (L2), HA-tagged; test: LCCA, SPR of light-chain tags; remark: listed apart in the source
[37] = target: CAT-2200 lambda light chain S176E_Y178E (L1), FLAG-tagged; test: LCCA, SPR of light-chain tags; remark: listed apart in the source
[38] = target: CAT-2200 lambda light chain V133L_S176D_Y178E (L1), FLAG-tagged; test: LCCA, SPR of light-chain tags; remark: listed apart in the source
[39] = target: CAT-2200 lambda light chain Y178K; test: LCCA
[40] = target: Pertuzumab kappa light chain V133G_L135W_S176D_T180E; test: LCCA
[41] = target: Pertuzumab kappa light chain V133G_L135W_S176D; test: LCCA
[42] = target: Pertuzumab kappa light chain V133G_S176D_T180E; test: LCCA
[43] = target: Pertuzumab kappa light chain V133G_S176D; test: LCCA
[44] = target: CAT-2200 lambda light chain K129T_V133W_S180E; test: LCCA
[45] = target: Pertuzumab kappa light chain Q124K_V133A_T178R; test: LCCA
[46] = target: Pertuzumab kappa light chain Q124R_L135W_Q160K_T178R; test: LCCA
[47] = target: Pertuzumab kappa light chain Q124R_L135W_T178R; test: LCCA
[48] = target: Pertuzumab kappa light chain Q124R_Q160K_T178R; test: LCCA
[49] = target: Pertuzumab kappa light chain Q124R_Q160K_T178R; test: LCCA; remark: listed apart in the source
[50] = target: Pertuzumab kappa light chain Q124K_S176A_T178R; test: LCCA
[51] = target: Pertuzumab kappa light chain Q124E_V133D_S176E_T178E_T180E; test: LCCA
[52] = target: Pertuzumab kappa light chain Q124E_V133D_S176E_T180E; test: LCCA
[53] = target: Pertuzumab kappa light chain Q124E_S176E_T178D_T180E; test: LCCA
[54] = target: Pertuzumab kappa light chain Q124E_S176E_T178E_T180E; test: LCCA
[55] = target: Pertuzumab kappa light chain Q124E_S176E_T180E; test: LCCA
[56] = target: CAT-2200 lambda light chain Y178K; test: LCCA; remark: listed apart in the source
[57] = target: Pertuzumab kappa light chain V133D (L2), N-terminal HA tag; test: LCCA, SPR of light chain tags
[58] = target: Pertuzumab kappa light chain V133D (L2), N-terminal HA tag; test: LCCA, SPR of light chain tags; remark: listed apart in the source
[59] = target: CAT-2200 lambda light chain S176K_Y178K (L1), N-terminal FLAG tag; test: LCCA, SPR of light chain tags
[60] = target: Pertuzumab kappa light chain Q124E_Q160E_S176D_T178D_T180E; test: LCCA
[61] = target: Pertuzumab kappa light chain Q124E_Q160E_S176D_T178D; test: LCCA
[62] = target: Pertuzumab kappa light chain Q124E_Q160E_S176A_T178A_T180E (L2), N-terminal HA tag; test: LCCA, SPR of light chain tags

CAT-2200 Fab heavy chain, wild type (H1), ABD2-His6 tagged
H1L1:H1L2 normalized median scalar value ln(r1/f1) [1]: 0.48

CAT-2200 lambda light chain construct (L1) E124K_Y178R, FLAG-tagged
H1L1:H1L2 normalized median scalar value ln(r1/f1) [2]: -0.13

CAT-2200 lambda light chain construct (L1) E124R, FLAG-tagged
H1L1:H1L2 normalized median scalar value ln(r1/f1) [3]: -0.11

CAT-2200 lambda light chain construct (L1) S180E, FLAG-tagged
H1L1:H1L2 normalized median scalar value ln(r1/f1) [4]: 0.94
H1L1:H1L2 normalized median scalar value ln(r1/f1) [5]: 2.16
H1L1:H1L2 normalized median scalar value ln(r1/f1) [6]: 2.32
H1L1:H1L2 normalized median scalar value ln(r1/f1) [7]: 2.24
H1L1:H1L2 normalized median scalar value ln(r1/f1) [8]: 2.07

CAT-2200 lambda light chain construct (L1) V133G_S176R, FLAG-tagged
H1L1:H1L2 normalized median scalar value ln(r1/f1) [9]: 0.08

Pertuzumab Fab heavy chain K145T_Q179E_K228D
H2L2:H2L1 median scalar value [10]: -0.1 ln
H2L2:H2L1 median scalar value [11]: 0.07 ln
H2L2:H2L1 normalized median ratio [11]: 51%

Pertuzumab Fab heavy chain K145T_Q179E_S188F_V190F
H2L2:H2L1 median scalar value [12]: -0.45 ln

Pertuzumab Fab heavy chain K145T_V177D_S188D (H2)
H2L2:H2L1 normalized median scalar value ln(r1/f1) [13]: 1.83
H2L2:H2L1 normalized median scalar value ln(r1/f1) [14]: 2.29
H2L2:H2L1 normalized median scalar value ln(r1/f1) [15]: 1.64
H2L2:H2L1 normalized median scalar value ln(r1/f1) [16]: 1.95
H2L2:H2L1 normalized median scalar value ln(r1/f1) [17]: 1.52
H2L2:H2L1 normalized median scalar value ln(r1/f1) [18]: 1.9
H2L2:H2L1 normalized median scalar value ln(r1/f1) [19]: 2.4
H2L2:H2L1 normalized median scalar value ln(r1/f1) [20]: 2.11
H2L2:H2L1 normalized median scalar value ln(r1/f1) [21]: 2.3
H2L2:H2L1 normalized median scalar value ln(r1/f1) [22]: 1.93
H2L2:H2L1 normalized median scalar value ln(r1/f1) [23]: 1.59
H2L2:H2L1 normalized median scalar value ln(r1/f1) [24]: 1.59
H2L2:H2L1 normalized median scalar value ln(r1/f1) [25]: 1.09
H2L2:H2L1 normalized median scalar value ln(r1/f1) [26]: 1.75

Pertuzumab Fab heavy chain L124E (H2)
H2L2:H2L1 normalized median scalar value ln(r1/f1) [27]: -0.15
H2L2:H2L1 normalized median scalar value ln(r1/f1) [28]: 0.25
H2L2:H2L1 normalized median scalar value ln(r1/f1) [29]: 1.69
H2L2:H2L1 normalized median scalar value ln(r1/f1) [30]: 2.32

Pertuzumab Fab heavy chain L124E_S188W (H2)
H2L2:H2L1 normalized median ratio (H2L1 share) [31]: 46%
H2L2:H2L1 normalized median ratio (H2L1 share) [32]: 15%
H2L2:H2L1 normalized median ratio, H2L2 share [33]: 54%
H2L2:H2L1 normalized median scalar value ln(r1/f1) [33]: 0.18
H2L2:H2L1 normalized median ratio, H2L2 share [34]: 54%
H2L2:H2L1 normalized median scalar value ln(r1/f1) [34]: 0.15
H2L2:H2L1 normalized median ratio, H2L2 share [35]: 85%
H2L2:H2L1 normalized median scalar value ln(r1/f1) [35]: 1.71
H2L2:H2L1 normalized median ratio, H2L2 share [36]: 86%
H2L2:H2L1 normalized median scalar value ln(r1/f1) [36]: 1.84
H2L2:H2L1 normalized median ratio (H2L1 share) [37]: 46%
H2L2:H2L1 normalized median ratio (H2L1 share) [38]: 14%

Pertuzumab Fab heavy chain L124R
H2L2:H2L1 normalized median ratio [39]: 9%
H2L2:H2L1 median scalar value [40]: 0.29 ln
H2L2:H2L1 median scalar value [41]: 0.55 ln
H2L2:H2L1 median scalar value [42]: 2.34 ln
H2L2:H2L1 normalized median ratio [42]: 91%
H2L2:H2L1 median scalar value [43]: 2.2 ln

Pertuzumab Fab heavy chain L124W_L143E_K145T
H2L2:H2L1 normalized median ratio [44]: 33%
H2L2:H2L1 median scalar value [45]: 0.73 ln
H2L2:H2L1 normalized median ratio [45]: 67%

Pertuzumab Fab heavy chain L143E_K145T
H2L2:H2L1 median scalar value [46]: -0.26 ln
H2L2:H2L1 median scalar value [47]: -0.32 ln
H2L2:H2L1 median scalar value [48]: 0.86 ln
H2L2:H2L1 median scalar value [49]: 3.09 ln

Pertuzumab Fab heavy chain L143E_K145T_S188W
H2L2:H2L1 median scalar value [50]: 0.43 ln

Pertuzumab Fab heavy chain L143K_S188K
H2L2:H2L1 normalized median ratio [39]: 27%
H2L2:H2L1 median scalar value [51]: 0.61 ln
H2L2:H2L1 median scalar value [52]: 1.01 ln
H2L2:H2L1 normalized median ratio [52]: 73%

Pertuzumab Fab heavy chain Q179K_S188K
H2L2:H2L1 normalized median ratio [39]: 12%
H2L2:H2L1 median scalar value [53]: 2.01 ln
H2L2:H2L1 normalized median ratio [53]: 88%
H2L2:H2L1 median scalar value [54]: 2.48 ln
H2L2:H2L1 normalized median ratio [54]: 92%
H2L2:H2L1 median scalar value [55]: 2.76 ln
H2L2:H2L1 normalized median ratio [56]: 8%

Pertuzumab Fab heavy chain S186K_S188T (H2), ABD2-His6 tagged
H2L2:H2L1 normalized median ratio [57]: 70%
H2L2:H2L1 normalized median scalar value ln(r1/f1) [57]: 0.85
H2L2:H2L1 normalized median ratio [58]: 62%
H2L2:H2L1 normalized median scalar value ln(r1/f1) [58]: 0.49
H2L2:H2L1 normalized median ratio [59]: 38%

Pertuzumab Fab heavy chain S186R_S188K
H2L2:H2L1 normalized median ratio [39]: 31%
H2L2:H2L1 median scalar value [60]: 0 ln
H2L2:H2L1 median scalar value [61]: 0.8 ln
H2L2:H2L1 normalized median ratio [61]: 69%

Pertuzumab Fab heavy chain S186R_S188W (H2), ABD2-His6 tagged
H2L2:H2L1 normalized median scalar value ln(r1/f1) [62]: 2.64
